This series has as its system Escherichia coli TOP10. Description: shrunken log2 fold change of peptide-encoding DNA abundance (4.5 h post-induction vs induction); higher = less antimicrobial activity (less host growth inhibition). Conditions: time post-induction: 4.5 h; library: site-saturation at positions 5, 18, 19, 20.
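Also: peptides expressed intracellularly from a pBAD plasmid library in pooled LB shake-flask culture, induced with 0.3% L-arabinose, DNA abundance read by NGS, three biological replicates, DESeq2 with apeglm shrinkage.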

For RRIRYRPPRLPRPRPRPSGDPRP, the “shrunken log2 fold change” value is -0.514.

Regarding RRIRYRPPRLPRPRPRPRDAPRP, the “shrunken log2 fold change” value is -0.103.

As for RRIRGRPPRLPRPRPRPQHCPRP, the “shrunken log2 fold change” value is 0.0523.

Turning to RRIRSRPPRLPRPRPRPWNMPRP, the “shrunken log2 fold change” value was -0.077.

Consider RRIRIRPPRLPRPRPRPDMHPRP, for which the “shrunken log2 fold change” value is -0.0689.

Regarding RRIRHRPPRLPRPRPRPCIMPRP, the “shrunken log2 fold change” value was -0.0341.

Regarding RRIRDRPPRLPRPRPRPAWRPRP, the “shrunken log2 fold change” value came to 0.812.

Regarding RRIRHRPPRLPRPRPRPPIQPRP, the “shrunken log2 fold change” value worked out at 0.0855.

Turning to RRIRLRPPRLPRPRPRPVVWPRP, the “shrunken log2 fold change” value amounted to 0.547.

For RRIRDRPPRLPRPRPRPTCWPRP, the “shrunken log2 fold change” value is 1.09.

Turning to RRIRWRPPRLPRPRPRPPPSPRP, the “shrunken log2 fold change” value was found to be 0.794.

Turning to RRIRKRPPRLPRPRPRPIRPPRP, the “shrunken log2 fold change” value is 0.012.

Take RRIRFRPPRLPRPRPRPRTDPRP: the “shrunken log2 fold change” value is -0.0313.

For the sequence RRIRYRPPRLPRPRPRPAPNPRP, the “shrunken log2 fold change” value was -0.01.

With RRIRCRPPRLPRPRPRPMKDPRP, the “shrunken log2 fold change” value is -0.594.

As for RRIRQRPPRLPRPRPRPGSAPRP, the “shrunken log2 fold change” value was 0.104.

As to RRIRMRPPRLPRPRPRPYFIPRP, the “shrunken log2 fold change” value is -0.413.

As to RRIRLRPPRLPRPRPRPNVKPRP, the “shrunken log2 fold change” value is -0.107.

In the case of RRIRIRPPRLPRPRPRPVHQPRP, the “shrunken log2 fold change” value is -0.398.

As to RRIRCRPPRLPRPRPRPKSVPRP, the “shrunken log2 fold change” value was 0.0362.

For RRIRDRPPRLPRPRPRPPCDPRP, the “shrunken log2 fold change” value was -0.0123.

In the case of RRIRCRPPRLPRPRPRPWYEPRP, the “shrunken log2 fold change” value was -0.135.

For RRIRTRPPRLPRPRPRPFRKPRP, the “shrunken log2 fold change” value is -0.0396.

As to RRIRNRPPRLPRPRPRPSMLPRP, the “shrunken log2 fold change” value was -0.145.

RRIRRRPPRLPRPRPRPWNIPRP: the “shrunken log2 fold change” value was -0.0317.

In the case of RRIRPRPPRLPRPRPRPSSPPRP, the “shrunken log2 fold change” value is -0.406.

As to RRIRNRPPRLPRPRPRPGNMPRP, the “shrunken log2 fold change” value is -1.16.

On to RRIRERPPRLPRPRPRPNMPPRP, for which the “shrunken log2 fold change” value is -0.706.

For RRIRCRPPRLPRPRPRPICAPRP, the “shrunken log2 fold change” value was 0.107.

As to RRIRSRPPRLPRPRPRPPHLPRP, the “shrunken log2 fold change” value is -0.00867.

Take RRIRWRPPRLPRPRPRPHLHPRP: the “shrunken log2 fold change” value was -0.043.

On to RRIRQRPPRLPRPRPRPKKQPRP, for which the “shrunken log2 fold change” value is -0.286.

In the case of RRIRWRPPRLPRPRPRPYNWPRP, the “shrunken log2 fold change” value is -1.06.

With RRIRGRPPRLPRPRPRPNYWPRP, the “shrunken log2 fold change” value is -0.115.

Turning to RRIRQRPPRLPRPRPRPLTQPRP, the “shrunken log2 fold change” value is 0.0547.

In the case of RRIRQRPPRLPRPRPRPTPHPRP, the “shrunken log2 fold change” value was 0.397.

In the case of RRIRCRPPRLPRPRPRPCCHPRP, the “shrunken log2 fold change” value is -0.204.

Consider RRIRRRPPRLPRPRPRPWCMPRP, for which the “shrunken log2 fold change” value is -0.107.

For RRIRVRPPRLPRPRPRPPEMPRP, the “shrunken log2 fold change” value is 0.116.

As to RRIRMRPPRLPRPRPRPHAAPRP, the “shrunken log2 fold change” value was determined as 1.63.

Consider RRIRQRPPRLPRPRPRPNCTPRP, for which the “shrunken log2 fold change” value is -0.448.

In the case of RRIRGRPPRLPRPRPRPLGYPRP, the “shrunken log2 fold change” value was 0.885.

As for RRIRLRPPRLPRPRPRPNFCPRP, the “shrunken log2 fold change” value stood at 0.101.

As to RRIRLRPPRLPRPRPRPTYMPRP, the “shrunken log2 fold change” value was -0.469.

For RRIRFRPPRLPRPRPRPERCPRP, the “shrunken log2 fold change” value came to 0.104.

On to RRIRERPPRLPRPRPRPHRNPRP, for which the “shrunken log2 fold change” value was -0.869.

On to RRIRPRPPRLPRPRPRPNRFPRP, for which the “shrunken log2 fold change” value is -0.0502.

Take RRIRWRPPRLPRPRPRPISIPRP: the “shrunken log2 fold change” value is -0.234.

Consider RRIRERPPRLPRPRPRPDRRPRP, for which the “shrunken log2 fold change” value was 0.0868.

On to RRIRHRPPRLPRPRPRPSRCPRP, for which the “shrunken log2 fold change” value was -0.648.

The record behind these values is the supplement of paper PMC9112550, “Optimization of the antimicrobial peptide Bac7 by deep mutational scanning” (BMC Biology, 2022).
